Experiment: soluble fraction after stress (log2 fold change); higher = more stays soluble; pooled small domains, quantitative proteomics
Settings: stress: 50 degC
Procedure, shortened: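 Pooled custom libraries of small protein domains were each held under stress at 50°C. The read-out, high-throughput quantitative proteomics, tracked how much of each protein stayed soluble. This is reported as a base-two log fold change used to indicate aggregation propensity. Higher values mean more protein remains in solution.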

Sequence	soluble fraction (log2)
HMSLLQTRQRHEALAALGFFKGDVAAEWSAASTEALRAAQASLGIRVDGKWGPQTEDAIGKALAERQG	-0.102
HMRKLHFVMSEIYEDHPWIGSKLQDVFLPKDIRVVLVERDSKQFMPNGQTLFELGDRLTLSALHYDPA	-3.02
HMFDFLELGQAIQDAREKQRITREELAEELGISARHLQSVEKEGQYPSFRLFIQLVTMFHISVDQYI	-0.0829
HMATTMSADWRPSEDAVGILVNAEINARFIEDAIPEFVLYWRERGAVHGAWNSKFIEHIRRQWAKFSAS	-2.2
HMDWPDDETIARIYALIKSDISSQARKVMELRFSEGMPFARIAAAMGISETAVYRHLSHALTVIRQKLN	-2.06
HMINLDGIGEKISRLRKEQGVTIRELSEYTGYSVGFLSNLETGKNSPTVESLQRVAEALRTDIIEILTK	-0.312
HMMEERVIEFANVLRRNGVRVSLAENMDAFRALKSLGISDPLLFRHALRATLIKRGSDIQPFEELFDFFFL	-1.26
HMNNGAEIGAEIRSLRKARGLTLEDLAAKIGRSVGYISQVERGISPLTIPNLKAIAEVLGVGINWFFRGEA	-0.552
HMHYKLIIFENHTKSTSLDITPEQARQILGVTDYTPEQYEILAEITNRPASYFMDDLVDYYVD	-2.39
HMEIEIPEELQNKFAEIPELKTAFESLTPGRQRAYVLYFSQPKQSKTREARIEKYIPHILDGKGMN	0.111
HMKSARDDILSALDKAGEPLSMKDIAELSGRKLSTLRAQMTRLVAEGAVQATAAAHSPDRKYRK	-0.0859
HMESPSGGHRIALAFDQGTARAVDATYARLTGAGYEGRTKPWDAPWGQRYATVFDPDGNSVDLFAALE	-0.263
HMASMNPVWLEFPNIPWGSAGWRMGWGEDYMRRWAKWYISLAEVERQSYKSDWPEPQEWEGFYAFMEHGT	-1.63
HMDPTYYFNLYPNPSKDEVSLFTNFTGKINIEILDLAGKSILSDNPISTISLVSLKEGLYLVKVKS	-0.208
HMQDTYLYPVQHNGKVRLQVELPAKGLPEDLVRLALAHPKVVEWLNGRIPTKTIAVPGRIINMVLPNQ	-0.134
HMRRFEFSDGSSNKFWQITRDGTSLTVTFGKIGTAGQTQLKELATEAAAIAEHDKLVKEKTKKGYAEVG	-0.206
HMDTYDSIDSILEERHLSRRKLAQAIGLPPSTFQSMMSRKSGMTLEVLMKIVSYLQVSPDAFW	-2.12
HMPTITIQRGIILSSTTKGFIDELSHSQIKNAIVERLGEHHVMIHESQLDAVIKYAQKKEAVINIYL	-0.0325
HMQQVIQSGQKVQLMATDGSFQVSAEGVALKNGSVGEVIGVRMPSGRVISGVVSASGAVEVR	0.146

Sequence	soluble fraction (log2)
HMDSVTVPDISGYSPKAAEDSINNAGLKINEQGLSGSGDGQVVERTSPSAGSKVKKGDSVTVYYSKA	0.00106
HMNTETAVTKAIDQIQVMMDLRNRSVSFTRDQETGTDIIKVIDDNTGDTIRQMPSEELLTFMKNLTQ	0.147
HMIDRPLTLVEDYERFAGELAKITLRFMLDGRKRFNGRLAGFDEDGKIVLETSFGRFAFSFDEIDSARI	-2.68
HMRAGALTTLTERERNVFDLVVTGHSNPEIARQLSIADVTVKTHVGHILSKLGVRDRVHLVIWAHRQGLAD	-2.61
HMTSPNPLIRSTTPGLETNKKGGIIVDENEMSTRENVFAGGDAVTGAATVILAMGAGKKAAAAIDAKLQN	0.12
HMGSVDMVYGDHKINSEHMDLSFKNQTAVLYDKVNYKSSLSMLSADKILVNFLNKYTKIEMNDENNNILIQ	0.059
HMVVLPGEVVALKIIQTGSSKDQGVGYLEDGTMVVVDGAKNSIGKTIEIQISRSHQTVAGRMLFGIAMS	-1.24
HMKALEGMRTVFTLADLATEPVTVEITVLEAFKYTTTLEIVQRPVLREWMTNPSMLIRVYHDASTAE	0.144
HMERPSLDQVLAHAKALGIAPARFVAYADGRWGTGWRLSPHGRARAWEELDRHRNDPLGYRDKLDVALQSG	-0.0254
HMPAPKPSGALSLKDEPLYAASDSKRRSGTVSGTYYRWDGENVNGRMRITNKQENIGKAGQVTGWITAH	0.087
HMNVAVSEADAKAAALERVSGATEADIRMELELDDGYYVYEGDIIYQQKEYEFEIDAQTGKFLKWSEER	-0.14
HMQQVLGDVNEDDKVDFLDAIVVLRHDAEIIQLTDNQMKAAEVNKDGKVDFLDAIMILRYDAEIIGS	-0.0952
HMESLGEKIKNIRISNNLKQSELADILHISEKTISSWENNRTTPDLNMIYKISNYFKKSFYYLISDDYI	-1.02
HMKKVIKIEENVSLQKLAALMSLKVTDVLMRLLSMGMSGVNINSTIDADTAKILASEFGWTVED	-0.743
HMGLNELQVKLNEAMQRLSLKHRTVVVMHDIEGIPHDEIAKIVGVSVGTIRSRLFYARRQLQADLGEY	-2.57
HMLAGKTYEVQTESGGKWTLVASYNVKSQAIQQAQALLESHKYSGVKVIAESDRKGEEVIFNEQSEVT	-0.0442
HMNDMWADITINANGKATLVVHTHEIKYLGLTGHLGKMEINGTAKEPVKDSSGDVVDYYFTFTDLDASMF	0.0763
HMKLQIQNIEIDKKISELAEGVSAEKLPFLAKLIDRSKLLNDKGEINEDSVKAAIEEVVKAFPDFK	0.081
HMKKLTNKQIIFFAEKLAHHSDFASKYSKVGESYEEFAIRLEKELNTPQKVEFYSSYLEKVGFK	-2.14
